From patent US20150216891A1 (INSTITUT NATIONAL DE LA SANTE ET DE LA RECHERCHE MEDICALE …, published 2015) come the findings set out here.

The experiment addresses T1, Translationally-Controlled Tumor Protein (TCTP) (human, UniProt P13693 1-172).
T1 construct: Endogenous TCTP in LNCaP cell lysates, immunoprecipitated with rabbit anti-TCTP antibody (Abcam); also called translationally-controlled tumour protein
T1 sequence: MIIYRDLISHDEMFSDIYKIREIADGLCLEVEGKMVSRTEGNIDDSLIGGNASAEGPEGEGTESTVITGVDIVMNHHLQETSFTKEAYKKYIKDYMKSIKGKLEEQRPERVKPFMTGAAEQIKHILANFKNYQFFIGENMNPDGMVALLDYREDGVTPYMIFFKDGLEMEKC
The experiment can be described thus: not named at this place (co-immunoprecipitation of Example 12).

B1: Hsp27 C1 deletion mutant (amino acids 93 to 205 of SEQ ID NO: 16), histidine-tagged (other, not shown: small tags and cut ends)
chain: DRWRVSLDVNHFAPDERTVKTKDGVVEISGKHEELQDEHGYISRCFTRKYTLPPGVDPTQVSSSLSPEGTLTVEAPMPKLATQSNEITIPVTFESRAQLGGPEAAKSDETAAK
notes: Transiently expressed in LNCaP cells
As to B1, the binding result is given as “binds”.
